Assay [1] concerns primary cortical neurons. The assay is described as follows: Mitochondrial membrane potential (TMRM live imaging). The assay is classed as cell-based, mouse. The following applies: TMRM fluorescence, NMDA 500 μM. The procedure: Mitochondrial Membrane Potential (Δψm): TMRM was used to determine Δψm. Mouse neuronal cultures were loaded with TMRM (100 nM) for 20 min. Thereafter, live-cell imaging was captured using LSM 510 Live Confocal microscope (Carl Zeiss, Germany) for 20 minutes and fluorescence values for TMRM were calculated using LSM 510 confocal software (Carl Zeiss). Following 50-100 seconds base-line stabilization, NMDA (500 μM for 5 min) was directly perfused during image acquisition on the confocal microscopic stage using a peristaltic pump (Gilson). Live images were acquired at an interval of 20 s using a low laser power to avoid excessive bleaching. Due to spectral overlap with GFP, plasma membrane potential could not be determined.

Another assay has as its target T1, PARP-1 (Homo sapiens, UniProt P09874).
T1 construct: purchased Trevigen
The assay is described as follows: Chemiluminescent PARP assay (biotinylated PAR onto histone). In kind it is biochemical. To be noted: incorporation of biotinylated PAR onto histone proteins. The procedure:
Because PARP-1 activation plays a prominent role in NMDA excitotoxicity we tested whether PARP-1 activity is directly affected by Iduna. PARP-1 activity was assessed by incorporation of biotinylated PAR onto histone proteins.
Chemiluminescent PARP assay for poly(ADP-ribosyl)ation of Histone H1: Activity of PARP-1 was determined by Trevigen Universal chemiluminescent PARP assay kit (Trevigen, Gaithersburg, Md., USA) in the presence of Iduna or the PARP-1 inhibitor 3-aminobenzamide (3-AB). According to manufacturer's instructions, the incorporation of biotinylated NAD+ (Trevigen) into the poly(ADP-ribose) polymer primed at solid phase immobilized histone H1 (Trevigen) was detected by the chemiluminescent assay, either in the presence or absence of recombinant Iduna. Reactions were performed with 34 μM total biotinylated NAD+ for 60 min at 25° C. in triplicates. Chemiluminescence was measured using a fluorescence multi-well plate reader (SOSTmax, Sunnyvale, Calif.) with an excitation at 544 nm excitation/590 nm emission. In the parallel wells, PARP1 activity was measured after the 3-aminobenzamide treatment at the same concentration of biotinylated NAD+ (34 μM).

Assay [2] deals with primary cortical neurons. The assay is described as follows: NMDA excitotoxicity cell death in primary cortical neurons. The assay is classed as cell-based, mouse. To be noted: NMDA 100 μM for 5 min, Iduna overexpression. The procedure:
Primary Neuronal Culture Preparation: Primary cortical cell cultures were prepared from gestational day 15 mouse embryos as previously described. Experiments were performed at DIV (day in vitro) 14. Under these conditions, neurons represent 90% of the cells in the culture. Mature neurons were washed with control salt solution (CSS) containing 120 mM NaCl, 5.4 mM KCl, 1.8 mM CaCl2, 25 mM Tris-HCl pH 7.4 and 15 mM D-glucose. To induce NMDA-mediated […], 50 μM NMDA and 10 μM glycine in CSS solution was applied to the cells for 5 min, then the cells were washed and re-supplemented with minimum essential medium containing 10% horse serum. […]
Cell Death Assessment: Following exposure of neuronal cultures to the various treatments neuronal survival was quantified and presented as percent of cell death. Percent cell death was determined as the ratio of live-to-dead cells compared with the percent cell death in control wells to account for cell death attributable to mechanical stimulation of the cultures. Quantification of neuronal survival was determined by staining treated cultures with 5 μM Hoechst 33342 and 2 μM propidium iodide (PI) (Invitrogen, Carlsbad, Calif.). […] The numbers of total and dead (PI positive) cells were counted by automated computer assisted software (Axiovision 4.6, Zeiss, Germany). […]

The subject of the next assay is AIF. The assay is described as follows: NMDA-induced AIF translocation in cortical neurons. The assay is classed as cell-based, mouse. The following applies: excitotoxic NMDA. From the text: Parthanatos involves the translocation of apoptosis inducing factor (AIF) from the mitochondria to the nucleus following NMDA excitotoxicity. AIF translocation following excitotoxic NMDA treatment was monitored by immunohistochemistry and confocal microscopy (FIG. 50) and by immunoblot analysis of nuclear and mitochondrial subcellular fractions (FIG. 51).

A further assay concerns primary neurons. The assay is described as follows: H2O2-induced cell death in primary neurons. In kind it is cell-based, mouse. The following applies: 100 μM H2O2. Here is the method: FIGS. 44 and 45—Iduna protects against peroxide-induced cell death in primary neurons. Primary neuronal cultures were transduced with lentiviruses expressing GFP, GFP-Iduna or GFP-Iduna-YRAA. 4 days following lentiviral transduction, cultures were treated with H2O2 (100 μM or 500 μM) and cell death assessed 24 h later using PI and Hoechst staining.
Cell Death Assessment: Following exposure of neuronal cultures to the various treatments neuronal survival was quantified and presented as percent of cell death. Percent cell death was determined as the ratio of live-to-dead cells compared with the percent cell death in control wells to account for cell death attributable to mechanical stimulation of the cultures. Quantification of neuronal survival was determined by staining treated cultures with 5 μM Hoechst 33342 and 2 μM propidium iodide (PI) (Invitrogen, Carlsbad, Calif.). Culture plates were placed on a mechanized stage of a Zeiss microscope and photomicrographs were collected by a blinded observer. The numbers of total and dead (PI positive) cells were counted by automated computer assisted software (Axiovision 4.6, Zeiss, Germany). The raw counts are presented in an Excel file for generation of percent cell death and statistical analysis. Glial nuclei fluoresce at a lower intensity than neuronal nuclei and were gated out by the software program. […]

Consider one molecule from US9623039B2, “Treatment and prevention of pathological conditions using iduna related techniques and compositions” (VALTED, LLC, priority 2010, dated 2017).

T1 sequence (P09874 whole entry): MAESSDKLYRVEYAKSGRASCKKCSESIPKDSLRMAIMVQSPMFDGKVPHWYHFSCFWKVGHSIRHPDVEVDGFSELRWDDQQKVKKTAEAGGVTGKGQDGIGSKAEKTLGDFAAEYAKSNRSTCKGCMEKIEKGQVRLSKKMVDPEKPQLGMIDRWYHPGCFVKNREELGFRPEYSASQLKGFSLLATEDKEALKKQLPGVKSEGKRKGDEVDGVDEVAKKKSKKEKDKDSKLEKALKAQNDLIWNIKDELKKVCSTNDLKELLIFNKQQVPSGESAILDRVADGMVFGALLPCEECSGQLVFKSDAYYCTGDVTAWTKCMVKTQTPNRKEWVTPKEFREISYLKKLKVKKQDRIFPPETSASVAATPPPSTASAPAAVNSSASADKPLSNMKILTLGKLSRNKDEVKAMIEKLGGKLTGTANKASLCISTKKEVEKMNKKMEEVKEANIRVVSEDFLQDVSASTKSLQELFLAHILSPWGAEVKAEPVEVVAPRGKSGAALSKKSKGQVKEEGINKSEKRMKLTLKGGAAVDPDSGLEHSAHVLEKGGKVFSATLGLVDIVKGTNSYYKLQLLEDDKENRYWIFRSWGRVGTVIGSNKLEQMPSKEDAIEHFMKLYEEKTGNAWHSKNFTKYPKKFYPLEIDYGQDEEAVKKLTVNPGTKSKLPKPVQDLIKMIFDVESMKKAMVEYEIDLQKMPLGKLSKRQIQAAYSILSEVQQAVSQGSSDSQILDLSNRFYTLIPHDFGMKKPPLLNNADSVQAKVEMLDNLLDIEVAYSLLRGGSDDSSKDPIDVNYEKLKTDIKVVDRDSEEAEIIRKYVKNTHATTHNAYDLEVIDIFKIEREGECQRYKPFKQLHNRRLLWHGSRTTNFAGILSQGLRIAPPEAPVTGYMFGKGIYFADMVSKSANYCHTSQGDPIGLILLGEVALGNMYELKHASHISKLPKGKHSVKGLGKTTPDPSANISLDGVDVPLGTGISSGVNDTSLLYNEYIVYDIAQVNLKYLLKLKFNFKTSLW

B1: Iduna: novel NMDA-induced cell survival protein, PAR-dependent E3 ligase; 359 amino acids (protein)
chain: MEMAGCGEIDHSINMLPTNKKANESCSNTAPSLTVPECAICLQTCVHPVSLPCKHVFCYLCVKGASWLGKRCALCRQEIPEDFLDKPTLLSPEELKAASRGNGEYAWYYEGRNGWWQYDERTSRELEDAFSKGKKNTEMLIAGFLYVADLENMVQYRRNEHGRRRKIKRDIIDIPKKGVAGLRLDCDTNTVNLARESSADGADSGSAQTGASVQLAVPSSTRPLTSVDGQLTSPVTPSPDAGISLEDSFAHLQLSGDSIAERSHRGEGEEDHESPSSGRVPDTSVEETESDASSDSEDAPVVVAQHSLTQQRPLVPNGNQTVADQSDRSGTDRSVAGGGTMSVNVRSRRPDGQCTVIEV
For B1, the “NMDA induced loss of Δψm” value in the assay on primary cortical neurons [1] was “prevents NMDA induced loss of Δψm”. For the same molecule, the PARP-1 activity result in the assay with PARP-1 is listed as “has no effect”. Further, the cell death % with primary cortical neurons [2] stood at 23.0±1.8%. In addition, in the assay with AIF, the “AIF translocation to the nucleus” value is recorded as “reduces the translocation of AIF”. Also, the “protection against H2O2 toxicity” value with primary neurons is listed as “protects only against 100 μM H2O2”.
